# Assay results from a protein production outcome set (Wang et al. 2014).
# Assay: label from the status in PepcDB records
# 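Also: failed if final PepcDB status was selected cloned or expressed and not failed if soluble or beyond.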
row,Sequence,protein production
1,AADERVKEMWAYSPSMDRNVPLVVITADESAGPRPVIYLLNGGDGGEGAANWVMQTDVLDFYLEKNVNVVIPMEGKFSYYTDWVEENASLGGKQMWETFLVKELPGPLEEKLNTDGQRAIAGMSMSATTSLLFPQHFPGFYDAAASFSGCAATSSLLPWEYLKLTLDRGNATPEQMWGPRGGEYNIYNDALINSDKLRGTELYVSNASGLAGEWESVDSPRFEGLNQQVQSIAMAETVVTGGIIEAATNKCTHDLKAKLDSAGIPADWNLRPTGTHSWGWWQDDLRGSWTTFARAFEL,failed
2,AAGAVRTDPVIHLHGSRSEDEPTTVLVHAGTATIMPYRALITEIRRRSPGLAEVVGVEVPDLSGFLAAPPDGLIERMAADYARALTADGRHRFHVVGYCLGGLIATEVARNLAESGAEVESLTVISSHSPRFRLDDELLAEYSFAVMMGIDPADLGFPDDQYRVAAAADTVLAASPGVLPDGGLAALGGEFEDVASRFRRLADVPRATRIARMCEAVPASAGTYEPDHMTRLFLAFRQSVFAITRYRAEPYAGDITFLRHDGAYPFPGSKDAVTAYWEELTLGDLDIVDIGGDHYSCLSVEHAPGILKTLGELTQGAITR,failed
3,AARNLSKEEYAANHPAGRIGKSLIFKVKDVMKKQEELPVCKEGDLIMDQLVELTSKGCGCLLVVDEHSRLIGTFTDGDLRRTLKASGEAIFKLSVGEMCNRKPRTIGPETMAVEAMKKMESPPSPVQFLPVVNEDNTLIGIVTLHGLVSA,failed
4,ACEQNEDWVVNEPMQSFEENPEYAPLNTIPDWVSEKVTPKEYELWRTMSSRYEINYSFLKKDISEKRKKEIYDCINNICERIEKGQINKYEGFLNIADEDGTTLSDSQYFGRIATRSPEGGAEYKTNGCTLYTHSLGPYIKAAVTYKKSDDDVTITSSSVYTGSPYLGNDPSFSGASSVSYDKDKKLIAASCSGTLSFKDGSRKVEVTVQKTGFMIP,not failed
5,ADKFTFIGFLSKKDSEQKKQLEELMPLDSTLIFYESPFRVGKTLENVRAIFGEKTKVVLARELTKKFESYYRGDITQALNFIKSNRPRGEFVLLIKKIHEA,failed
6,AEIVEGRDYTVLSAPQPTEGDSEHIEVIEFFWYGCPHCSDLHPHLSRWLENKPADVAFRFVPAILRNNWVPGAKTFYAMESLGLTQTLHDKVYHAIHREKTDLSKEATLFDWIGKQGVDRDKFIGAYNSFTVQNQANRSAQMIRQYKLTGVPALVVDGRYLTSGKAGGTPQDTISVLNQLIEK,failed
7,AEMKTYSHRTMPSACTLVMCSSVESGLPGRDGRDGREGPRGEKGDPGLPGAAGQAGMPGQAGPVGPKGDNGSVGEPGPKGDTGPSGPPGPPGVPGPAGREGPLGKQGNIGPQGKPGPKGEAGPKGEVGAPGMQGSAGARGLAGPKGERGVPGERGVPGNTGAAGSAGAMGPQGSPGARGPPGLKGDKGIPGDKGAKGESGLPDVASLRQQVEALQGQVQHLQAAFSQYKKVELFPNGQSVGEKIFKTAGFVKPFTEAQLLCTQAGGQLASPRSAAENAALQQLVVAKNEAAFLSMTDSKTEGKFTYPTGESLVYSNWAPGEPNDDGGSEDCVEIFTNGKWNDRACGEKRLVVCEF,failed
8,AGGEDRGDGEPVSVVTVRVQYLEDTDPFACANFPEPRRAPTCSLDGALPLGAQIPAVHRLLGAPLKLEDCALQVSPSGYYLDTELSLEEQREMLEGFYEEISKGRKPTLILRTQLSVRVNAILEKLYSSSGPELRRSLFSLKQIFQEDKDLVPEFVHSEGLSCLIRVGAAADHNYQSYILRALGQLMLFVDGMLGVVAHSDTIQWLYTLCASLSR,failed
9,AGVMTGAKFTQIQFGMTRQQVLDIAGAENCETGGSFGDSIHCRGHAAGDYYAYATFGFTSAAADAKVDSKSQEKLLAPSAPTLTLAKFNQVTVGMTRAQVLATVGQGSCTTWSEYYPAYPSTAGVTLSLSCFDVDGYSSTGAYRGSAHLWFTDGVLQGKRQWDLV,not failed
10,AGVSISAQNLIKNEKFATEVTNKVTNPSKATAGEWFIMNNEADGVTTIAWEQTGDAKYPNAMKIDNSGAEKNTSWYKAFLGQRITDGLEKGIYVLTFYAKAKEAGTPVSVYIKQTNEEKNDNGKLNTTFFMRRDYDADAQPNASGAQYNFKIKDADKWTKVVVYYDMGQVVNAISSKKSNPALEVSDTDDDAAILKDCYVAILGQNKGGVVEISDVTLKKK,not failed
11,AGVVVPKYTPSTENPGGPGEEPGDGLIDPAEPLDRGFMHLKGRELKSLNSISITGLNDGEKVILSTLAGLAARVTGDQVYINEGGPSSVWLKQMQNKYGIPVNTYNALAPLVQHYVETGVIKGYIVYTPYSEGQSHSINVATSLCGLLRGIAVPESLVDKVKAMGVTTELMDVRSYDEKWLYENYKDQLDKSLAADMKPEIFHHLRDYITMTNAFAFYDYNARRDWSWRTSILKDLDKGAYCFGYYDLDEWGMVNNASQLGVSMLPTDQAANLATLSSIYDTTGLKQRPATKEVVTEENVHYVTFLVSDGDNIAFNLWGQQGYMDHDLHGQFPLGYTISPSLYDLAPAALRWYYENSKEGDYFVAGPSGSSYIFPSKMSDADLDDYLAKLNEYVDKSGLNICNILDQKIMDNPKVYNKYLAQPNIDAIFYTGYGEKGDGRIKFSDNGKPVIEQRSVLWEGIDGGSNRGEESTVISQINSRSANPHSADGYTFVFVHCWTKNQQSIKTVIDGLNDNVRVVPVDQFVQLVKQNLGPK,not failed
12,AHHHHHHGSVVKRTMTKKFLEEAFAGESMAHMRYLIFAEKAEQEGFPNIAKLFRAIAYAEFVHAKNHFIALGKLGKTPENLQMGIEGETFEVEEMYPVYNKAAEFQGEKEAVRTTHYALEAEKIHAELYRKAKEKAEKGEDIEIKKVYICPICGYTAVDEAPEYCPVCGAPKEKFVVFE,not failed
13,AIAAIAEKAKGKEWTSTEKSREEDQQASNQPNSIALPGTSAKRTKEKMSVKGSKVLCPKKKAEHTDNPRPQKKIPIPPLPSKLPPVNLIHRDILRAWCQQLKLSSKGQKLDAYKRLCAFAYPNQKDFPSTAKEAKIRKSLQKKLKVEKGETSLQSSETHPPEVALPPVGEPPALENSTALLEGVNTVVVTTSAPEALLASWARISARARTPEAVESPQEASGVRWCVVHGKSLPADTDGWVHLQFHAGQAWVPEKQEGRVSALFLLPASNFPPPHLEDNMLCPKCVHRNKVLIKSLQWE,failed
14,AIAEHKEVVLLLLLFLKSGQGEPLDDYVNTQGPSLFSVTKKQLGAGSREECAAKCEEDKEFTCRAFQYHSKEQQCVIMAENRKSSIIIRMRDAVLFEK,not failed
15,AIAQGENVDHAQPISTWSAEQELHLVVFTKPPIAGLTKQRLSREIGSTLATRISAALVENTLATAYDWLQGLDLQAGGTGAVHLYYTPVESEQAKAECVERWLDDSVRHRYPAFRIAPQKASKVQSTGDQKQDPLGSRLIQAFTEVTSLVDESRDAHVVVIGSDCPALDTAVLQQAFAALHAGHGAVIGPAQDGGYYLLGLAFAAAERTRWARVIYAAFGPHLVFSQNDVCARTVEALRNDGVRTICLPVTLNDVDTAQDLVHLPASMRPREWFSSANARLHKTSDLVETAPAPGSTTCDEEVDADKLDPSVQNVCSRQV,not failed
16,AIATYPTNLEIIGGQGGSSFSFTGENNGASLEKIWVWVGGWQIKAVRAWLSDGRDETFGVPSGSHQEYVFTPGECFTSLSLWGNGAGTRLGAIKFKTNKGGEFFAHMTSWGLKTEYPMDVGSGYCLGIVGRGGSDIDCMGFMFLNAVQSTVLTNVNYPTINQLIPKVATEEIKSVSFENKTSVKQEQKVETSKKVIKTSSWSMTKSFSSTFSVEVSAGIPEIAEVSTGFSISFGVESTHSLEQTDEKNETLTTTVEVPPKKKVDVHITIGRASFDLPYTGTVKITCKNGSVLQYETKGQYKGVAYTDIKVNTVEKDL,not failed
17,AIQKQMLVPEVVVNKDGDWVTPVMKDEGSIQYFVVFRFINGNEIIEPKDKDYEKLGSFMRMFHEKTNGVLKSVPQTWRGYERPIYSEKKMIHEPLQCLLNTSFLSYEDKNKCLRIAERIQELTNSIQLREKQFVHGDMHFGNILVDKEDWYLLDFDECGFGYKEFDIGVPRLHLIASGQLEDAWGNFMMGYGENIS,failed
18,AIQVFDVTAVNISATSLTLIWKVSDNESSSNYTYKIHVAGETDSSNLNVSEPRAVIPGLRSSTFYNITVCPVLGDIEGTPGFLQVHTPPVP,not failed
19,AIVKRFEPLLLVPIGFGGILSNLPDAGLAMSAIENAVYAAKPEVMTAFSEVLQLSSYMPADIKQALSSATPLQMTTLHLLAEQYQYSDGM,failed
